Key:
[1] = target: T1, α4β7 integrin on RPMI-8866 cells (human, UniProt P13612 34-1032; P26010 20-798); assay: radiolabeled VCAM-Ig (<500 pM) on RPMI-8866 cells, MnCl2, filter plates, scintillation counting
T1 construct: whole, on cells; Endogenous integrin on RPMI-8866 cells; also called LPAM-1
Method: (§1) Compounds of this invention were prepared in DMSO at 100× the desired final assay concentration. Final concentrations were selected from a range between 0.001 nM-100 μM. […] The plates were incubated at room temperature for 45 minutes on a plate shaker at 200 rpm, filtered on a vacuum box, and washed on the same apparatus by the addition of 100 μL of binding buffer containing 1mM MnCl_2. After insertion of the multiscreen plates into adapter plates (Packard, Meriden, Coon., cat# 6005178), 100 μL of Microscint-20 (Packard cat# 6013621) was added to each well. The plates were then sealed, placed on a shaker for 30 seconds, and counted on a Topcount microplate scintillation counter (Packard). Control wells containing DMSO alone were used to determine the level of VCAM-Ig binding corresponding to 0% inhibition. […] Percent inhibition was then calculated for each test well and the IC$50$ was determined from a ten point titration using a validated four parameter fit algorithm.

[2] = target: T2, VLA-4 (α4β1) on Jurkat cells, clone E6-1 (UniProt P13612 34-1032; P05556 21-798, limits assumed); assay: radiolabeled VCAM-Ig (~100 pM) on Jurkat cells, 1 mM MnCl2, filter plates, scintillation counting
T2 construct: whole, on cells; Endogenous integrin on Jurkat cells; also called very late antigen-4; CD49d/CD29
T2 sequence (P13612 34-1032 limits assumed, chain 1 of 2): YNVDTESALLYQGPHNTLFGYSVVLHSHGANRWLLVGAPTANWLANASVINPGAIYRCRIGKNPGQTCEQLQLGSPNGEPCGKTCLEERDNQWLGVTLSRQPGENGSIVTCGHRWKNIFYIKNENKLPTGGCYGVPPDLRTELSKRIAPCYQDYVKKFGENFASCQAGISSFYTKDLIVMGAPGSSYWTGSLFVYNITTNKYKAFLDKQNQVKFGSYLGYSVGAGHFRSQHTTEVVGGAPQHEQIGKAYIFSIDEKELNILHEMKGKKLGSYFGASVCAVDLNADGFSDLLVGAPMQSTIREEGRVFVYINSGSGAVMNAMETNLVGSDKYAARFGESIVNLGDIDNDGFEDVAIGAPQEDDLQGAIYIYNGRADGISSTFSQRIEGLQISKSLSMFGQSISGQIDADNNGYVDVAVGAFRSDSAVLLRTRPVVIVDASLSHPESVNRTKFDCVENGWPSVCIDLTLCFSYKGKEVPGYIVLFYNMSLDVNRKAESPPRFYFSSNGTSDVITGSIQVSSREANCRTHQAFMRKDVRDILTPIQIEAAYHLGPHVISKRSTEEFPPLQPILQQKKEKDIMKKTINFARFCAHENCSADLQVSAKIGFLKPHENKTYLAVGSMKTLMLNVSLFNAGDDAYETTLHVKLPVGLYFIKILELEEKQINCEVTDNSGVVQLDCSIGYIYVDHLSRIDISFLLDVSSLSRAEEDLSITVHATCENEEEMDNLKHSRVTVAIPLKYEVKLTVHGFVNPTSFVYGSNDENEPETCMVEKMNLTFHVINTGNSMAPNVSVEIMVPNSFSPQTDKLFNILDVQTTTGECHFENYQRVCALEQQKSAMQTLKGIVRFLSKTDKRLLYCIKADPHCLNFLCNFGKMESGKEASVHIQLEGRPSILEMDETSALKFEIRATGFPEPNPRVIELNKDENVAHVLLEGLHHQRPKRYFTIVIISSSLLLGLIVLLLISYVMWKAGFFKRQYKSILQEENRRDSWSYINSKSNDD
T2 sequence (P05556 21-798 limits assumed, chain 2 of 2): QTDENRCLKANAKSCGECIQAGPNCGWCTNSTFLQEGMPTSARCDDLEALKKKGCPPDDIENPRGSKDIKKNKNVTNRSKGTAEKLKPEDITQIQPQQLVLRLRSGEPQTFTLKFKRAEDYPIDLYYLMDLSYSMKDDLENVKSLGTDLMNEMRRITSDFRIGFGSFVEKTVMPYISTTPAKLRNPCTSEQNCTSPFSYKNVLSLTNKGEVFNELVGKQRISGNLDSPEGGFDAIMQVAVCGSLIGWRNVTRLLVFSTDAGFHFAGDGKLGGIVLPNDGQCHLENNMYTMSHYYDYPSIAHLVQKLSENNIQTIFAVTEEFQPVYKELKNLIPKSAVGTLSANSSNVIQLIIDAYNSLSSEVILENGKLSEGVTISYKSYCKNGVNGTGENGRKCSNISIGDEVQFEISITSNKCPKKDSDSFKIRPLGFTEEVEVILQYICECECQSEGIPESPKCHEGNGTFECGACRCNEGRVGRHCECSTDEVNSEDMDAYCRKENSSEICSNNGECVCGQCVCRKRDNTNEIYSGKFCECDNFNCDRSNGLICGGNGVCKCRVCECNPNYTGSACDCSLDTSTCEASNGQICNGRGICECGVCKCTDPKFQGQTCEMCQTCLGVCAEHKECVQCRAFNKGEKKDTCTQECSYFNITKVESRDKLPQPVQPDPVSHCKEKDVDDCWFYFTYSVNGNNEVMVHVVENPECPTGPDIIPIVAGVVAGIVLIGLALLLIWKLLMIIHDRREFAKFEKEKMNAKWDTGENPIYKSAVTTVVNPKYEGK
Method: as §1, with “μM. Jurkat cells were centrifuged at 400×g for five minutes and resuspended in binding buffer (25 mM HEPES, 150 mM NaCl, 3 mM KCl, 2 mM glucose, 0.1% bovine serum albumin, pH 7.4). The cells were centrifuged again and resuspended in binding buffer supplemented with MnCl_2 at a final concentration of 1 mM.” for “μM.”, “30 minutes,” for “45 minutes on a plate shaker at 200 rpm,”, “1 mM” for “1mM”, “Conn.,” for “Coon.,”, “$IC50$” for “IC$50$”

T1 sequence (P13612 34-1032, chain 1 of 2): as the sequence (P13612 34-1032 limits assumed, chain 1 of 2) above
T1 sequence (P26010 20-798, chain 2 of 2): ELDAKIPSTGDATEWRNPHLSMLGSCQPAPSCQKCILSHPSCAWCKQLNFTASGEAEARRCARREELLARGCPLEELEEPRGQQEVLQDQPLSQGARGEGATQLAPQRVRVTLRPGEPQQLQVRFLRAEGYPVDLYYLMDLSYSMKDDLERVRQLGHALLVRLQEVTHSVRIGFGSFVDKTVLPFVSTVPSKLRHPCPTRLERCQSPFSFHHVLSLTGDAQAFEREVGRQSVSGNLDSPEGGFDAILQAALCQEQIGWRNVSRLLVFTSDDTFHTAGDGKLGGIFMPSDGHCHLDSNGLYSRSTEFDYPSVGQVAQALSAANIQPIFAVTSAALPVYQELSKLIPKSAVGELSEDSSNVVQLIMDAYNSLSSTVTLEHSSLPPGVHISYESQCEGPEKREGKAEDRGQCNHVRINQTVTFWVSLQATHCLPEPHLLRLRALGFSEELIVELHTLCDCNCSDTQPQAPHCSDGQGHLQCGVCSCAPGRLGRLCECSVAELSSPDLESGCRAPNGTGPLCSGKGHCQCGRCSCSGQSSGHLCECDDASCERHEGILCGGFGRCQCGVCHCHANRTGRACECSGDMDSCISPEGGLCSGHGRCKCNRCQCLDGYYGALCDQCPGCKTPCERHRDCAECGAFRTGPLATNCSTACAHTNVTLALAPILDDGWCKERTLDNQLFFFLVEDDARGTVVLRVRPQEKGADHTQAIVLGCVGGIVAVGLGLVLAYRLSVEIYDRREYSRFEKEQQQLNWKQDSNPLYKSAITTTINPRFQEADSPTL

B1: VCAM-Ig fusion protein (Fc fusion, not shown: small tags and cut ends)
chain: FKIETTPESRYLAQIGDSVSLTCSTTGCESPFFSWRTQIDSPLNGKVTNEGTTSTLTMNPVSFGNEHSYLCTATCESRKLEKGIQVEIYSFPKDPEIHLSGPLEAGKPITVKCSVADVYPFDRLEIDLLKGDHLMKSQEFLEDADRKSLETKSLEVTFTPVIEDIGKVLVCRAKLHIDEMDSVPTVRQAVKEL
modifications: labeled with 125I-Bolton Hunter reagent (sites not given)
B1: binds [1]; binds [2].

From patent US6645939 (MERCK, dated 2003)
